Source: patent WO2009104736A1 (dated 2009)
Blank lines part the entries; values can stand above or below the molecule they belong to.

Tests used:
[1] = biological target: amyloid β 1-42 protein (Aβ 1-42) (UniProt P05067); test: SPR competition, Biacore J; Aβ 1-42 on a CM5 chip saturated with 3.4A10 (competitor), then 3.4A10 and 4G8 mixed 20:1; parameters: unit not given here
Aβ 25-35 = biological target: T1, Aβ 25-35 (UniProt P05067 696-706); test: dot blot of peptides on nitrocellulose
T1 construct: domain: Aβ 25-35; Positions count on Aβ; also called product code 4309-v
T1 peptide (looked up): GSNKGAIIGLM

Aβ 34-42 = biological target: T2, Aβ 34-42 (UniProt P05067 705-713); test: dot blot of peptides on nitrocellulose
T2 construct: domain: Aβ 34-42; Positions count on Aβ
T2 peptide (looked up): LMVGGVVIA

Chain of amyloid β 1-42 protein (Aβ 1-42) (P05067 672-713 limits assumed): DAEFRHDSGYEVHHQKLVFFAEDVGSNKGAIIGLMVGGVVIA

enhanced reaction (response level) [1]: > 2000
Molecule: mouse anti-human Aβ monoclonal antibody 4G8

binding result (Aβ 25-35): no binding (tested: 1 μg/ml antibody)
binding result (Aβ 34-42): no binding (tested: 1 μg/ml antibody)
B1: monoclonal antibody 3.4A10 (antibody of Example 1) (antibody, V domains shown)
VH: EVQLLESGGGLVQPGGSRKLSCAASGFTFSSFGVHWFRQAPEKGLEWVAYISSGSSTIYYADTVKGRFTISRDNPKNTLFLQMASLRSEDTAMYYCAPYGSSPFPYWGQGTLVTVST
VL: ELQLTQSPASLAVSLGQRATISCRASESVDSYGYNFMHWYQQKPGQPPKLLIYLASNLESGVPARFSGSGSRTDFTLTIDPVEADDAATYYCQQNNEDPLTFGAGTKLELKR
notes: Mouse IgG2b from a hybridoma, purified from ascites; also called TAPIR antibody
